The term EC50 denotes the midpoint of the concentration-response curve. Lower therefore signals higher potency in that assay.

The source of these data is patent EP4782541A1 (Nanjing Probio Biotech Co., Ltd., dated 2026).

The labels stand for the following.
B1: BsAb-17 (bispecific antibody, human IgG1, lambda)
chain: EVQLVESGGGLVQPGGSLRLSCAASGRSFSSFQMGWFRQAPGKEREFVAASGWSGGPTYYWDSVIGRFTISTDNSKNTLYLQMNSLRAEDTAVYYCYEDRVLSGRHVRYWGQGTLVTVSSDKTHTCPPCPAPESTRGPSVFLFPPKPKDTLMISRTPEVTCVVVDVSHEDPEVKFNWYVDGVEVHNAKTKPREEQYNSTYRVVSVLTVLHQDWLNGKEYKCKVSNKALPAPIEKTISKAKGQPREPQVCTLPPSRDELTKNQVSLSCAVKGFYPSDIAVEWESNGQPENNYKTTPPVLDSDGSFFLVSKLTVDKSRWQQGNVFSCSVMHEALHNHYTQKSLSLSPGK
heavy: EVQLVESGGGLVQPGGSLRLSCAASGRSFSSFQMGWFRQAPGKEREFVAASGWSGGPTYYWDSVIGRFTISTDNSKNTLYLQMNSLRAEDTAVYYCYEDRVLSGRHVRYWGQGTLVTVSSGGGGSGGGGSGGGGSEVQLVESGGGLVQPGRSLRLSCAASGFTFNTYAMNWVRQAPGKGLEWVARIRSKYNNYATYYADSVKDRFTISRDDSKSIAYLQMNSLKTEDTAVYYCVRHGNFGNSYVSWFAYWGQGTLVTVSSASTKGPSVFPLAPSSKSTSGGTAALGCLVKDYFPEPVTVSWNSGALTSGVHTFPAVLQSSGLYSLSSVVTVPSSSLGTQTYICNVNHKPSNTKVDKKVEPKSCDKTHTCPPCPAPESTRGPSVFLFPPKPKDTLMISRTPEVTCVVVDVSHEDPEVKFNWYVDGVEVHNAKTKPREEQYNSTYRVVSVLTVLHQDWLNGKEYKCKVSNKALPAPIEKTISKAKGQPREPQVYTLPPCRDELTKNQVSLWCLVKGFYPSDIAVEWESNGQPENNYKTTPPVLDSDGSFFLYSKLTVDKSRWQQGNVFSCSVMHEALHNHYTQKSLSLSPGK
light: QTVVTQEPSLTVSPGGTVTLTCRSSTGAVTTSNYANWVQQKPGQAPRGLIGGTNKRAPGVPARFSGSLLGGKAALTLSGVQPEDEAEYFCALWYSNLWVFGGGTKLTVLGQPKAAPSVTLFPPSSEELQANKATLVCLISDFYPGAVTVAWKADSSPVKAGVETTTPSKQSNNKYAASSYLSLTPEQWKSHRSYSCQVTHEGSTVEKTVAPTECS
B2: BsAb-16 (bispecific antibody, human IgG1, lambda)
chain: EVQLVESGGGLVQPGGSLRLSCAASGRSFSSFQMGWFRQAPGKEREFVAASGWSGGPTYYWDSVIGRFTISTDNSKNTLYLQMNSLRAEDTAVYYCYEDRVLSGRHVRYWGQGTLVTVSSGGGGSGGGGSGGGGSEVQLVESGGGLVQPGGSLRLSCAASGRSFSSFQMGWFRQAPGKEREFVAASGWSGGPTYYWDSVIGRFTISTDNSKNTLYLQMNSLRAEDTAVYYCYEDRVLSGRHVRYWGQGTLVTVSSDKTHTCPPCPAPESTRGPSVFLFPPKPKDTLMISRTPEVTCVVVDVSHEDPEVKFNWYVDGVEVHNAKTKPREEQYNSTYRVVSVLTVLHQDWLNGKEYKCKVSNKALPAPIEKTISKAKGQPREPQVCTLPPSRDELTKNQVSLSCAVKGFYPSDIAVEWESNGQPENNYKTTPPVLDSDGSFFLVSKLTVDKSRWQQGNVFSCSVMHEALHNHYTQKSLSLSPGK
heavy: EVQLVESGGGLVQPGRSLRLSCAASGFTFNTYAMNWVRQAPGKGLEWVARIRSKYNNYATYYADSVKDRFTISRDDSKSIAYLQMNSLKTEDTAVYYCVRHGNFGNSYVSWFAYWGQGTLVTVSSASTKGPSVFPLAPSSKSTSGGTAALGCLVKDYFPEPVTVSWNSGALTSGVHTFPAVLQSSGLYSLSSVVTVPSSSLGTQTYICNVNHKPSNTKVDKKVEPKSCDKTHTCPPCPAPESTRGPSVFLFPPKPKDTLMISRTPEVTCVVVDVSHEDPEVKFNWYVDGVEVHNAKTKPREEQYNSTYRVVSVLTVLHQDWLNGKEYKCKVSNKALPAPIEKTISKAKGQPREPQVYTLPPCRDELTKNQVSLWCLVKGFYPSDIAVEWESNGQPENNYKTTPPVLDSDGSFFLYSKLTVDKSRWQQGNVFSCSVMHEALHNHYTQKSLSLSPGK
light: QTVVTQEPSLTVSPGGTVTLTCRSSTGAVTTSNYANWVQQKPGQAPRGLIGGTNKRAPGVPARFSGSLLGGKAALTLSGVQPEDEAEYFCALWYSNLWVFGGGTKLTVLGQPKAAPSVTLFPPSSEELQANKATLVCLISDFYPGAVTVAWKADSSPVKAGVETTTPSKQSNNKYAASSYLSLTPEQWKSHRSYSCQVTHEGSTVEKTVAPTECS
B3: BsAb-3 (bispecific antibody, human IgG1, lambda)
chain: QVQLVESGGGVVQPGGSLRLSCAASGFVLRVNTVSWYRQAPGKQRELVALITSESNEYYDDSVKGRFTISRDNAKNTIYLHMNSLKPEDTGVYFCNFITTWGQGTQVTVSSDKTHTCPPCPAPESTRGPSVFLFPPKPKDTLMISRTPEVTCVVVDVSHEDPEVKFNWYVDGVEVHNAKTKPREEQYNSTYRVVSVLTVLHQDWLNGKEYKCKVSNKALPAPIEKTISKAKGQPREPQVCTLPPSRDELTKNQVSLSCAVKGFYPSDIAVEWESNGQPENNYKTTPPVLDSDGSFFLVSKLTVDKSRWQQGNVFSCSVMHEALHNHYTQKSLSLSPGK
heavy: EVQLVESGGGLVQPGRSLRLSCAASGFTFNTYAMNWVRQAPGKGLEWVARIRSKYNNYATYYADSVKDRFTISRDDSKSIAYLQMNSLKTEDTAVYYCVRHGNFGNSYVSWFAYWGQGTLVTVSSASTKGPSVFPLAPSSKSTSGGTAALGCLVKDYFPEPVTVSWNSGALTSGVHTFPAVLQSSGLYSLSSVVTVPSSSLGTQTYICNVNHKPSNTKVDKKVEPKSCDKTHTCPPCPAPESTRGPSVFLFPPKPKDTLMISRTPEVTCVVVDVSHEDPEVKFNWYVDGVEVHNAKTKPREEQYNSTYRVVSVLTVLHQDWLNGKEYKCKVSNKALPAPIEKTISKAKGQPREPQVYTLPPCRDELTKNQVSLWCLVKGFYPSDIAVEWESNGQPENNYKTTPPVLDSDGSFFLYSKLTVDKSRWQQGNVFSCSVMHEALHNHYTQKSLSLSPGK
light: QTVVTQEPSLTVSPGGTVTLTCRSSTGAVTTSNYANWVQQKPGQAPRGLIGGTNKRAPGVPARFSGSLLGGKAALTLSGVQPEDEAEYFCALWYSNLWVFGGGTKLTVLGQPKAAPSVTLFPPSSEELQANKATLVCLISDFYPGAVTVAWKADSSPVKAGVETTTPSKQSNNKYAASSYLSLTPEQWKSHRSYSCQVTHEGSTVEKTVAPTECS
notes: also called BsAb-03
B4: BsAb-10 (bispecific antibody, human IgG1, lambda)
chain: EVQLVESGGGLVQPGGSLRLSCAASYFISRFYAVGWYRQAPGKQRELVARISSGGWTYYADSVKGRFTISIDNSKNTLYLQMNSLRAEDTAVYYCNARNLWGQGTLVTVSSDKTHTCPPCPAPESTRGPSVFLFPPKPKDTLMISRTPEVTCVVVDVSHEDPEVKFNWYVDGVEVHNAKTKPREEQYNSTYRVVSVLTVLHQDWLNGKEYKCKVSNKALPAPIEKTISKAKGQPREPQVCTLPPSRDELTKNQVSLSCAVKGFYPSDIAVEWESNGQPENNYKTTPPVLDSDGSFFLVSKLTVDKSRWQQGNVFSCSVMHEALHNHYTQKSLSLSPGK
heavy: EVQLVESGGGLVQPGGSLRLSCAASYFISRFYAVGWYRQAPGKQRELVARISSGGWTYYADSVKGRFTISIDNSKNTLYLQMNSLRAEDTAVYYCNARNLWGQGTLVTVSSGGGGSGGGGSGGGGSEVQLVESGGGLVQPGRSLRLSCAASGFTFNTYAMNWVRQAPGKGLEWVARIRSKYNNYATYYADSVKDRFTISRDDSKSIAYLQMNSLKTEDTAVYYCVRHGNFGNSYVSWFAYWGQGTLVTVSSASTKGPSVFPLAPSSKSTSGGTAALGCLVKDYFPEPVTVSWNSGALTSGVHTFPAVLQSSGLYSLSSVVTVPSSSLGTQTYICNVNHKPSNTKVDKKVEPKSCDKTHTCPPCPAPESTRGPSVFLFPPKPKDTLMISRTPEVTCVVVDVSHEDPEVKFNWYVDGVEVHNAKTKPREEQYNSTYRVVSVLTVLHQDWLNGKEYKCKVSNKALPAPIEKTISKAKGQPREPQVYTLPPCRDELTKNQVSLWCLVKGFYPSDIAVEWESNGQPENNYKTTPPVLDSDGSFFLYSKLTVDKSRWQQGNVFSCSVMHEALHNHYTQKSLSLSPGK
light: QTVVTQEPSLTVSPGGTVTLTCRSSTGAVTTSNYANWVQQKPGQAPRGLIGGTNKRAPGVPARFSGSLLGGKAALTLSGVQPEDEAEYFCALWYSNLWVFGGGTKLTVLGQPKAAPSVTLFPPSSEELQANKATLVCLISDFYPGAVTVAWKADSSPVKAGVETTTPSKQSNNKYAASSYLSLTPEQWKSHRSYSCQVTHEGSTVEKTVAPTECS
B5: BsAb-2 (bispecific antibody, human IgG1, lambda)
chain: EVQLVESGGGLVQPGGSLRLSCAASYFISRFYAVGWYRQAPGKQRELVARISSGGWTYYADSVKGRFTISIDNSKNTLYLQMNSLRAEDTAVYYCNARNLWGQGTLVTVSSDKTHTCPPCPAPESTRGPSVFLFPPKPKDTLMISRTPEVTCVVVDVSHEDPEVKFNWYVDGVEVHNAKTKPREEQYNSTYRVVSVLTVLHQDWLNGKEYKCKVSNKALPAPIEKTISKAKGQPREPQVCTLPPSRDELTKNQVSLSCAVKGFYPSDIAVEWESNGQPENNYKTTPPVLDSDGSFFLVSKLTVDKSRWQQGNVFSCSVMHEALHNHYTQKSLSLSPGK
heavy: EVQLVESGGGLVQPGRSLRLSCAASGFTFNTYAMNWVRQAPGKGLEWVARIRSKYNNYATYYADSVKDRFTISRDDSKSIAYLQMNSLKTEDTAVYYCVRHGNFGNSYVSWFAYWGQGTLVTVSSASTKGPSVFPLAPSSKSTSGGTAALGCLVKDYFPEPVTVSWNSGALTSGVHTFPAVLQSSGLYSLSSVVTVPSSSLGTQTYICNVNHKPSNTKVDKKVEPKSCDKTHTCPPCPAPESTRGPSVFLFPPKPKDTLMISRTPEVTCVVVDVSHEDPEVKFNWYVDGVEVHNAKTKPREEQYNSTYRVVSVLTVLHQDWLNGKEYKCKVSNKALPAPIEKTISKAKGQPREPQVYTLPPCRDELTKNQVSLWCLVKGFYPSDIAVEWESNGQPENNYKTTPPVLDSDGSFFLYSKLTVDKSRWQQGNVFSCSVMHEALHNHYTQKSLSLSPGK
light: QTVVTQEPSLTVSPGGTVTLTCRSSTGAVTTSNYANWVQQKPGQAPRGLIGGTNKRAPGVPARFSGSLLGGKAALTLSGVQPEDEAEYFCALWYSNLWVFGGGTKLTVLGQPKAAPSVTLFPPSSEELQANKATLVCLISDFYPGAVTVAWKADSSPVKAGVETTTPSKQSNNKYAASSYLSLTPEQWKSHRSYSCQVTHEGSTVEKTVAPTECS
notes: also called BsAb-02

The target of the assay is T1, human CD3 (on Jurkat cells) (human, UniProt P07766 23-207; P09693 23-182; P04234 22-171).
T1 construct: whole, on cells
T1 sequence (P07766 23-207, chain 1 of 3): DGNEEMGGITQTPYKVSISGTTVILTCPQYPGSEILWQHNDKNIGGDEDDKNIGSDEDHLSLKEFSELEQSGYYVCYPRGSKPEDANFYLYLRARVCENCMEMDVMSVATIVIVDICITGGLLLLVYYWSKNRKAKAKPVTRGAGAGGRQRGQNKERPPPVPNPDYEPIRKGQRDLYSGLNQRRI
T1 sequence (P09693 23-182, chain 2 of 3): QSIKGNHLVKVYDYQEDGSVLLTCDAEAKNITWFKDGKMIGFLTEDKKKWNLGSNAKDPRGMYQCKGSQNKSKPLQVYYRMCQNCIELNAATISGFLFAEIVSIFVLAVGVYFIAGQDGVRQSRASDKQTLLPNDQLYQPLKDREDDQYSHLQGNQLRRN
T1 sequence (P04234 22-171, chain 3 of 3): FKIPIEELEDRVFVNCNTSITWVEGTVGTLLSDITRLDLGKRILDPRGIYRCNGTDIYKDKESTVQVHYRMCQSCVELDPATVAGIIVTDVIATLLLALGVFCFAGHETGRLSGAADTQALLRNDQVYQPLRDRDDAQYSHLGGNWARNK
In words: flow cytometry on Jurkat cells expressing human CD3. A general note: A flow cytometer gives signals particle by particle.
With B1, the EC50 is 4.02 nM. In other words, the single-digit nanomolar range. In the case of B2 it was 0.469 nM; in that of B3, 6.66 nM. Next, B4: 2.84 nM; B5: 0.329 nM.
